Measurements published in publication PMC6252174 (Nature structural & molecular biology, 2018).

Target: the molecule itself
Assay: cryo-EM structure

B1: Xenopus tropicalis TRPV4 crystallization and cryo-EM construct TRPV4_(cryst) (133–797 N647Q) (domain or fragment, UniProt A0A6I8RQZ3 133-797, looked up)
chain: APSPDPPPVIKMFNRHMLFDIVSRGSTAELEGFLPFLLAQKKRLTDEEFREASTGKTCLTKALMNLNGGKNDTIPMLIDIAEKTGNLREFINSPFRDVYYRGQTALHIAIERRCKHYVELLVEKGADVHAQARGRFFQPKDEGGYFYFGELPLSLAACTNQPDIVHYLTENAHKKADIRRQDSRGNTVLHALVAIADNTRENTKFVTKVYDLLVIKCVKLYPDSSLEAIFNNDSMSPLMMAAKLGKIGIFQHIIRLEIKDEEARHLSRKFRDWAYGPVYSSLYDLSMLDTCGEEVSVLEILVYNSKVENRHEMLAVEPINELLRDKWQKFGAVSFYISVVSYLIAMIIFTLIAYYRPMDGTPPYPYRTTMDYMRLAGEIVTLLTGVVFFITNIKDLFMKKCPGVNSLFIDGSFQLLYFIYSVLVIITAVLYLVGIESYLAVMVFALVLGWMNALYFTRGLKLTGTYSIMLQKILFKDLFRFLLVYLLFMIGYASALVSLLNPCTSQESCIETSSQCTVPEYPSCRDSSTFSKFLLDLFKLTIGMGDLEMINSAKYPAVFIILLVTYIILTFVLLLNMLIALMGETVGQVSKESKQIWKLQWATTILDIERSFPVCMRKAFRSGEMVTVGKNLDGTPDRRWCFRVDEVNWSHWNQNLGIINEDPGR
- stoichiometry N: 4
